Assays:
[1] = target: T1, STARD1_(46-285)-S56A/L59P phosphorylated at Ser57 and Ser195 (human, UniProt P49675 46-285, S56A | L59P, phosphoserine at 57; phosphoserine at 195); assay: SPR
T1 sequence: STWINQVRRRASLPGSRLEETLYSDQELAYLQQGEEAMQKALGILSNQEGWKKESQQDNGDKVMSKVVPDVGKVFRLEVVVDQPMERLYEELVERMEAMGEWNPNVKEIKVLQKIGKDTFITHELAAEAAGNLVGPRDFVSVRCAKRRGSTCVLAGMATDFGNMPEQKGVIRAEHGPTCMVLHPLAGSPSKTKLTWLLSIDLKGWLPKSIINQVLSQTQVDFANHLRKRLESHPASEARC

[2] = target: T1, STARD1_(46-285)-S56A/L59P …; assay: SPR; remark: listed apart in the source
[3] = target: the molecule itself; assay: crystal structure; phosphorylated chimeras of 14-3-3σΔC with the STARD1 peptide joined by a GSGSL linker; sitting-drop vapor diffusion; data at 100 K
[4] = target: T2, wild-type full-length human 14-3-3γ (human, UniProt P61981 1-247); assay: time-resolved fluorescence anisotropy; 1 µM 22NC, 10 µM pSTARD1, 100 µM 14-3-3γ; 20 mM Tris-HCl pH 7.5, 150 mM NaCl, 5 mM MgCl2; 25 °C; correlation time of the 22NC bound to STARD1; details: both partners purified
T2 construct: 14-3-3γ, human, wild type, full length; Called untagged in the preparation of the heterodimer; also called untagged 14-3-3γ
T2 sequence (looked up): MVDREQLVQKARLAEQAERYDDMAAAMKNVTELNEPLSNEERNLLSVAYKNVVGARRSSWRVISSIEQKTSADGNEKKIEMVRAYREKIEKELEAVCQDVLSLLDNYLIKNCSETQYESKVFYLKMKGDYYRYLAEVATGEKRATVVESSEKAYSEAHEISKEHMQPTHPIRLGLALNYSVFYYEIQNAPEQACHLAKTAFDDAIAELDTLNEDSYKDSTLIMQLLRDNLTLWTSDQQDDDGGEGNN

Binder | Ka [1] [M⁻¹] | koff [2] [s⁻¹] | binding result [3] | binding result [4]
14-3-3ε/γ heterodimer (His6-tagged 14-3-3ε with untagged 14-3-3γ) (complex) chain 1: MDDREDLVYQAKLAEQAERYDEMVESMKKVAGMDVELTVEERNLLSVAYKNVIGARRASWRIISSIEQKEENKGGEDKLKMIREYRQMVETELKLICCDILDVLDKHLIPAANTGESKVFYYKMKGDYHRYLAEFATGNDRKEAAENSLVAYKAASDIAMTELPPTHPIRLGLALNFSVFYYEILNSPDRACRLAKAAFDDAIAELDTLSEESYKDSTLIMQLLRDNLTLWTS chain 2: MVDREQLVQKARLAEQAERYDDMAAAMKNVTELNEPLSNEERNLLSVAYKNVVGARRSSWRVISSIEQKTSADGNEKKIEMVRAYREKIEKELEAVCQDVLSLLDNYLIKNCSETQYESKVFYLKMKGDYYRYLAEVATGEKRATVVESSEKAYSEAHEISKEHMQPTHPIRLGLALNYSVFYYEIQNAPEQACHLAKTAFDDAIAELDTLNEDSYKDSTLIMQLLRDNLTLWTSDQQDDDGGEGNN | 67000 | 0.0057 |  | 
His6-tagged 14-3-3ε (natural protein) MDDREDLVYQAKLAEQAERYDEMVESMKKVAGMDVELTVEERNLLSVAYKNVIGARRASWRIISSIEQKEENKGGEDKLKMIREYRQMVETELKLICCDILDVLDKHLIPAANTGESKVFYYKMKGDYHRYLAEFATGNDRKEAAENSLVAYKAASDIAMTELPPTHPIRLGLALNFSVFYYEILNSPDRACRLAKAAFDDAIAELDTLSEESYKDSTLIMQLLRDNLTLWTS | 77000 | 0.0058 |  | 
chimeric 14-3-3σΔC protein with the STARD1 Ser195 phosphopeptide (other, human, phosphoserine at Ser195 of the STARD1 peptide, 14-3-3σ, human, without the C-terminal tail (14-3-3σΔC core); linker; steroidogenic acute regulatory protein STARD1 (StAR), human, stretch around Ser195; also called protein with fused Ser195 peptide; not shown: His, N-terminal, cleaved) MERASLIQKAKLAEQAERYEDMAAFMKGAVEKGEELSCEERNLLSVAYKNVVGGQRAAWRVLSSIEQKSNEEGSAAAGPEVREYREKVETELQGVCDTVLGLLDSHLIKEAGDAESRVFYLKMKGDYYRYLAEVATGDDKKRIIDSARSAYQEAMDISKKEMPPTNPIRLGLALNFSVFHYEIANSPEEAISLAKTTFDEAMADLHTLSEDSYKDSTLIMQLLRDNLTLWTGSGSLRRGSTCVLA |  |  | binds | 
STARD1_(46-285)-S56A/L59P phosphorylated at Ser57 and Ser195 (domain or fragment, human, UniProt P49675 46-285, looked up, phosphoserine at 57; phosphoserine at 195, steroidogenic acute regulatory protein STARD1 (StAR), human, residues 46-285 of the 285-residue pre-protein; also called pSTARD1; pSTARD1_(46-285)-S56A/L59P) STWINQVRRRASLPGSRLEETLYSDQELAYLQQGEEAMQKALGILSNQEGWKKESQQDNGDKVMSKVVPDVGKVFRLEVVVDQPMERLYEELVERMEAMGEWNPNVKEIKVLQKIGKDTFITHELAAEAAGNLVGPRDFVSVRCAKRRGSTCVLAGMATDFGNMPEQKGVIRAEHGPTCMVLHPLAGSPSKTKLTWLLSIDLKGWLPKSIINQVLSQTQVDFANHLRKRLESHPASEARC |  |  |  | binds
